Earlier results, collected in publication PMC8175380.

Assays:
[1] = biological target: EED (Homo sapiens) (UniProt O75530); experiment: ITC
[2] = biological target: MDM2 (Homo sapiens) (UniProt Q00987); experiment: SPR
Chain of MDM2 (Homo sapiens) (Q00987 whole entry): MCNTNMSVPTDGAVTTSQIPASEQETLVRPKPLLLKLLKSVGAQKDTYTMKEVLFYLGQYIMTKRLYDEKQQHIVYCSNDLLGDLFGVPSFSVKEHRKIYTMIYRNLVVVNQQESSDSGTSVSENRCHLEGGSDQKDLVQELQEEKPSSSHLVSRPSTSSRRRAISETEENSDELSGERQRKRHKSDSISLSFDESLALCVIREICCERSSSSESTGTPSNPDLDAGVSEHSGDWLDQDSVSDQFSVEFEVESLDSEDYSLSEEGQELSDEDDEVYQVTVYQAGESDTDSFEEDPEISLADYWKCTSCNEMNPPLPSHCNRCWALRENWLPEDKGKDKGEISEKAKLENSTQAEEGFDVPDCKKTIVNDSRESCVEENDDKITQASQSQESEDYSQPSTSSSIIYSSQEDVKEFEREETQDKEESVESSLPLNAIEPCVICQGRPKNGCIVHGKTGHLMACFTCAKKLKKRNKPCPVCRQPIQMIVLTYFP

Chain of EZH2 peptide aptamer (Q15910 whole entry): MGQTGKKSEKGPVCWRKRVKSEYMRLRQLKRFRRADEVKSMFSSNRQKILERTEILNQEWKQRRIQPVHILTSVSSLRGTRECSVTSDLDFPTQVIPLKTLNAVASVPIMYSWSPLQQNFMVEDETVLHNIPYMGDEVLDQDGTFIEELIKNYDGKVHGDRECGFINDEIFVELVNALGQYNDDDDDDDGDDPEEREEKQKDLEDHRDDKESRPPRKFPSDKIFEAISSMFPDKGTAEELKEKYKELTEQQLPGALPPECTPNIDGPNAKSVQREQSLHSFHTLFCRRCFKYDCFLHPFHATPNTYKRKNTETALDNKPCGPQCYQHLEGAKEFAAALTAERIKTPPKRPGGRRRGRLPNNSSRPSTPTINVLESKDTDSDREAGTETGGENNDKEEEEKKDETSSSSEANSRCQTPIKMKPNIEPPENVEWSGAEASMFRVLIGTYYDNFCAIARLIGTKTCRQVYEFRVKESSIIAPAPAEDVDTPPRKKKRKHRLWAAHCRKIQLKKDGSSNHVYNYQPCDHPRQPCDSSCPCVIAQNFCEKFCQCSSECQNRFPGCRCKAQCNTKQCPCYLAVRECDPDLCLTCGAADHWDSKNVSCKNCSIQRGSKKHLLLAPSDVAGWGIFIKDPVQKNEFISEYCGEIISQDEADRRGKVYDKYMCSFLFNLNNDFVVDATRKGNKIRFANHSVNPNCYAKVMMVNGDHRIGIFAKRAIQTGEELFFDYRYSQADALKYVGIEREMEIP
Chain of EED (Homo sapiens) (O75530 2-441): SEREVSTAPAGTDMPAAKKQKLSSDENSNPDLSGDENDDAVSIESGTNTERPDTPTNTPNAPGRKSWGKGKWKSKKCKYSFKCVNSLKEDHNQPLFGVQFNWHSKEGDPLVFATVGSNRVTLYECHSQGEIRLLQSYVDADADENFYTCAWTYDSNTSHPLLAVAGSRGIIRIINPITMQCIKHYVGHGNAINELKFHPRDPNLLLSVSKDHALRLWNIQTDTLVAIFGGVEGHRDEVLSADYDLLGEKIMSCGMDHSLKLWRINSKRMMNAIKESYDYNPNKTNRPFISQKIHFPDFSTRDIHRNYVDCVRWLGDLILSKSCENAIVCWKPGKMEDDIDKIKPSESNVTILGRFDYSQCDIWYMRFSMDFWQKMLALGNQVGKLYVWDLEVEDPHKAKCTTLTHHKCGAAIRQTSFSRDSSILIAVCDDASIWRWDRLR

EZH2 peptide aptamer (from UniProt Q15910)
Kd [1]: 380 nM

p53 peptide aptamer (from UniProt P04637)
Kd [2]: 140 nM
